Key:
[1] = tested on: H1 human embryonic stem cell (hESC) line; test: Induction of KDR+CD235a/b+ mesoderm from H1 hESCs (Activin A titration, flow cytometry); format: cell-based
Description: (§1) hPSC differentiation to the hematopoietic lineage was performed in StemPro-34 media supplemented with penicillin/streptomycin (1%, ThermoFisher), L-glutamine (2 mM, ThermoFisher), ascorbic acid (50 μg/mL, Millipore Sigma), transferrin (150 μg/mL, ROCHE), monothioglycerol (50 μg/mL, Millipore Sigma) and other stage-specific factors for example as described below. Differentiation cultures were maintained in hypoxic conditions (37° C., 5% CO2, 5% O2) unless otherwise indicated. On day 0, hPSC cultures at 80-90% confluency were treated with TrypLE for 3 minutes at 37° C. Thereafter, the 80-90% of the TrypLE was aspirated and the cultures were incubated at 37° C. for an additional 2 minutes. […]
(§2) EBs prior to day 9 of differentiation, monolayer cultures and cultures aggregated after cell sorting were dissociated with Trypsin (Corning) for 5 minutes at 37° C. […] For fluorescence-activated cell sorting (FACS), cells were stained, sorted and collected in StemPro-34 media supplemented with penicillin/streptomycin (1%), L-glutamine (2 mM) and DNaseI. […] Thereafter, the sorted cells were counted and resuspended at 250,000 cells/mL in StemPro-34 media supplemented with recombinant factors appropriate for the day of differentiation. […]

CHOPWT10 human iPSC line = test: Induction of KDR+CD235a/b+ mesoderm from CHOPWT10 iPSCs (Activin A titration, flow cytometry); format: cell-based
Description: as §1, §2

B1: Activin A: activin receptor agonist; human Activin A (Uniprot accession number: P08476), recombinant, from R&D Systems (protein, UniProt P08476 311-426, looked up)
Inhibin beta A chain: GLECDGKVNICCKKQFFVSFKDIGWNDWIIAPSGYHANYCEGECPSHIAGTSGSSLSFHSTVINHYRMRGHSPFANLKSCCVPTKLRPMSMLYYDDGQNIIKKDIQNMIVEECGCS
proportion of KDR+CD235a/b+ cells ([1]; 6 ng/mL Activin A with 10 ng/mL BMP4 and 5 ng/mL FGF2, day 4 of differentiation, H1): greater than 30%
frequency of CD235a/b+ cells ([1]; Activin A 0 to 10 ng/mL with BMP4 10 ng/mL and FGF2 5 ng/mL from day 1 of differentiation): increased in an Activin A dose-dependent manner and plateaued when its concentration exceeded 6 ng/mL
proportion of KDR+CD235a/b+ cells (CHOPWT10 human iPSC line; 2 ng/mL Activin A, CHOPWT10 human iPSC line, day 4): greater than 30%
proportion of KDR+CD235a/b+ cells at day 4 of differentiation (CHOPWT10 human iPSC line; 2 or 4 ng/mL Activin A within 0 to 10 ng/mL titration, with BMP4 10 ng/mL and FGF2 5 ng/mL, days 1 to 4): highest proportion

Reference: patent US20230374458A1, “COMPOSITIONS AND METHODS FOR GENERATING HUMAN YOLK SAC-LIKE HEMATOPOIETIC CELLS” (UNIVERSITY HEALTH NETWORK, priority 2020, published 2023)
